Measurements reported in publication PMC10086252, “Tomato chlorosis virus CPm protein is a pathogenicity determinant and suppresses host local RNA silencing induced by single-stranded RNA”.

Target: CPm (minor coat protein) (Tomato chlorosis virus, UniProt A0A088FMK1 1-669)
Assay: EMSA; […], room temperature 30 min; […]; binding buffer, […]
Conditions: protein: recombinant; tags: His (pET28a); label: 5'-biotin; single strand

Binder: UCAACAGGAUCGAGCUUAAGG (ssRNA) [siRGFP-guide (single-stranded GFP RNA probe)]
- binding result: no binding
